Where no end group is shown, it is not given here.
What was measured:
[1] = target: T1, anti-CD28 scFv (VH - linker 1 - VL) (biotinylated (site not stated)); test: phage ELISA as above, wells pre-incubated with soluble CD28 (competitor);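 further: ELISA of crude clonal phage supernatants added to wells pre-treated with soluble CD28 in blocking buffer, bound phage read out with HRP-conjugated anti-M13 antibody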
T1 sequence (scFv, as listed by the source): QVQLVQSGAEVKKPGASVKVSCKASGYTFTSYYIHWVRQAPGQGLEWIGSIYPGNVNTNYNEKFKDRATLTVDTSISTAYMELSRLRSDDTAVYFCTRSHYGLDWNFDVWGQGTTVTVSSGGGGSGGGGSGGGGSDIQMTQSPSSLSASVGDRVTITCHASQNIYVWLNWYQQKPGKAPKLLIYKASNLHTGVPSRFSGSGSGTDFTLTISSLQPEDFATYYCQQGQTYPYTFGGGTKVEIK

[2] = target: T1, anti-CD28 scFv (VH - linker 1 - VL); test: phage ELISA; biotinylated anti-CD28 scFv on neutravidin plate, clonal phage supernatant, anti-M13-HRP detection;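 further: before phage addition, wells were pretreated with soluble CD28 protein in blocking buffer, or with blocking buffer only as the comparison, then phage were added without washing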
Procedure: (§1) Clonal phage were harvested as crude supernatants and screened via standard enzyme linked immunosorbent assays (ELISAs). […] Prior to the addition of clonal phage, wells were incubated with blocking buffer and CD28 soluble protein or blocking buffer alone. Without washing or aspirating, clonal phage supernatants were then added to the wells and incubated for a short time. Wells were then washed followed by detection of bound phage using a horse radish peroxidase conjugated anti-M13 antibody.

[3] = target: T2, anti-CD28 scFv (VH - linker 1 - VL) (biotinylated (captured on neutravidin coated plates)); test: clonal phage ELISA; biotinylated anti-CD28 scFv on neutravidin plate, phage detected with anti-M13-HRP;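 further: crude clonal phage supernatants added to wells preincubated with blocking buffer alone or blocking buffer plus soluble CD28 protein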
T2 sequence (scFv, as listed by the source): as above
Procedure: as §1

[4] = target: T2, anti-CD28 scFv (VH - linker 1 - VL); test: clonal phage ELISA on anti-CD28 scFv; wells pre-incubated with soluble CD28 (competitor);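 further: crude phage supernatants added to wells preloaded with blocking buffer plus soluble CD28, bound phage read with HRP-linked anti-M13 antibody, comparison wells received blocking buffer only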
Procedure: as §1

[5] = target: T3, Anti-CD28 scFv (VH - linker 1 - VL) (biotinylated (site not stated)); test: phage ELISA as above, wells pre-incubated with soluble CD28 (competitor);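 further: ELISA of crude clonal phage supernatants added to wells pre-treated with soluble CD28 in blocking buffer, bound phage read out with HRP-conjugated anti-M13 antibody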
T3 construct: Captured as biotinylated scFv on neutravidin plates in the panning ELISA
T3 sequence (scFv, as listed by the source): as above

[6] = target: T4, anti-CD28 scFv (VH - linker 1 - VL) (biotinylated (site not given)); test: phage ELISA as before, wells pre-incubated with soluble CD28 (competitor)
T4 sequence (scFv, as listed by the source): as above

[7] = target: T4, anti-CD28 scFv (VH - linker 1 - VL); test: phage ELISA; biotinylated anti-CD28 scFv on neutravidin plate, clonal phage supernatant, anti-M13-HRP detection;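 further: before phage addition, wells were pretreated with soluble CD28 protein in blocking buffer, or with blocking buffer only as the comparison, then phage were added without washing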
Procedure: as §1

[8] = target: T5, Anti-CD28 scFv (VH - linker 1 - VL) (biotinylated (site not stated)); test: phage ELISA; biotinylated anti-CD28 scFv on neutravidin plate, wells pre-incubated with soluble CD28 (competitor), anti-M13-HRP detection;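 further: bound clonal phage detected by peroxidase-labelled anti-M13 antibody, compared against wells given blocking buffer alone without soluble CD28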
T5 construct: Biotinylated scFv captured on neutravidin coated plates in the panning ELISA
T5 sequence (scFv, as listed by the source): as above

[9] = target: T6, anti-CD28 scFv (VH - linker 1 - VL) (biotinylated (site not stated)); test: clonal phage ELISA; biotinylated anti-CD28 scFv on neutravidin plate, anti-M13-HRP detection;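 further: crude supernatants of phage clones were tested in wells pretreated with blocking buffer either alone or supplemented with soluble CD28 protein before phage addition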
T6 construct: Captured as biotinylated scFv on neutravidin coated plates in the clonal phage ELISA
T6 sequence (scFv, as listed by the source): as above

[10] = target: anti-CD28 scFv (VH - linker 1 - VL) (biotinylated (site not stated)); test: phage ELISA; biotinylated anti-CD28 scFv on neutravidin plate, clonal phage supernatant, anti-M13-HRP;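 further: before the phage were added, wells were pre-incubated with soluble CD28 protein in blocking buffer, or with blocking buffer alone, and were not washed in between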
Target sequence in this assay (scFv, as listed by the source): as above

Binder | CD28 scFv signal [3] | CD28 scFv signal in presence of CD28 [4] | also measured
MNWCPSHLWHMCYF (peptide, not shown: large carriers, cysteine pairing not given here; also: displayed as fusion to phage pIII, linker and pIII sequence not given here, Clonal phage of the Peptide-9 library) [Phage-171] | – | – | CD28 scFv signal in presence of CD28 [1]: 0.192; CD28 scFv signal [2]: 0.702
MDWCPFYLWDECFL (peptide, not shown: large carriers, Clonal phage of the Peptide-9 library) [Phage-165] | – | – | CD28 scFv signal in presence of CD28 [1]: 0.141; CD28 scFv signal [2]: 1.02
MFWCPRYLWHECFN (peptide, not shown: large carriers, Clonal phage of the Peptide-9 library) [Phage-163] | – | – | CD28 scFv signal in presence of CD28 [1]: 0.175; CD28 scFv signal [2]: 1.08
MNWCPSDLWHLCFN (peptide, not shown: large carriers, cysteine pairing not given here; also: displayed as fusion to phage pIII, linker and pIII sequence not given here, Clonal phage of the Peptide-9 library) [Phage-170] | – | – | CD28 scFv signal in presence of CD28 [1]: 0.131; CD28 scFv signal [2]: 0.739
MDWCPKHLWNKCFN [Phage-246] | 1.16 | 0.092 | –
IDWCPMHMWDFCYN [Phage-390] | – | – | CD28 scFv signal in presence of CD28 [5]: 0.232
MDWCPRDRWIDCFN [Phage-226] | 0.339 | 0.131 | –
MDWCPRDRWSDCFN [Phage-227] | 0.102 | 0.074 | –
MTWCPTSFWNRCLD [Phage-233] | 0.392 | 0.405 | –
MDWCPRHLWHECYS [Phage-241] | 2.58 | 0.374 | –
MDWCPMYMWYECFA (tested as crude clonal phage supernatant; not shown: pIII of the bacteriophage to which the peptide is fused) [Phage-68, clonal phage peptide MDWCPMYMWYECFA] | – | – | CD28 scFv signal in presence of CD28 [6]: 0.358; CD28 scFv signal [7]: 2.48
MDWCPRALWFECFF [Phage-234] | 2.67 | 0.331 | –
MDWCPPYLWSECFA [Phage-238] | 2.6 | 0.234 | –
MDWCPRFMWAECFN [Phage-247] | 2.6 | 0.341 | –
VPWCLIISGLDCLN (also called VPWCLIISGLDCIN (so in the source)) [Phage-231] | 0.107 | 0.09 | –
MDWCPKHLWTECFA [Phage-242] | 2.49 | 0.145 | –
MDWCPKDLWHECFN (peptide, not shown: large carriers, cysteine pairing not given here; also: displayed as fusion to phage pIII, linker and pIII sequence not given here, Clonal phage of the Peptide-9 library) [Phage-168] | – | – | CD28 scFv signal in presence of CD28 [1]: 0.1; CD28 scFv signal [2]: 0.762
MDWCARFVGYGCLD [Phage-232] | 0.065 | 0.074 | –
MSWCPQDLWHVCFN (peptide, not shown: large carriers, cysteine pairing not given here; also: displayed as fusion to phage pIII, linker and pIII sequence not given here, Clonal phage of the Peptide-9 library) [Phage-167] | – | – | CD28 scFv signal in presence of CD28 [1]: 0.112; CD28 scFv signal [2]: 0.86
MDWCPRNMWHHCFD [Phage-248] | 1.6 | 0.524 | –
MNWCPTALWHVCFN (tested as crude clonal phage supernatant; not shown: pIII of the bacteriophage to which the peptide is fused) [Phage-67, clonal phage peptide MNWCPTALWHVCFN] | – | – | CD28 scFv signal in presence of CD28 [6]: 0.169; CD28 scFv signal [7]: 1.64
MDWCPRHLWTECFS (tested as crude phage supernatant) [Phage-297] | – | – | CD28 scFv signal in presence of CD28 [8]: 0.243
MDWCPRNMWTVCFL (tested as crude clonal phage supernatant) [Phage-211] | – | – | CD28 scFv signal [9]: 1.12

Binder | CD28 scFv signal [3] | CD28 scFv signal in presence of CD28 [4] | also measured
MDWCPLYLWAECFN (tested as crude phage supernatant) [Phage-298] | – | – | CD28 scFv signal in presence of CD28 [8]: 0.193
MDWCPSYLWHECFF [Phage-237] | 2.61 | 0.447 | –
MNWCPTDLWHECFN (peptide, not shown: large carriers, Clonal phage of the Peptide-9 library) [Phage-162] | – | – | CD28 scFv signal in presence of CD28 [1]: 0.095; CD28 scFv signal [2]: 1.09
MDWCPRHLWYECFN [Phage-243] | 2.41 | 0.167 | –
MDWCPSDMWAHCYN [Phage-249] | 1.21 | 0.109 | –
MDWCPRYLWNVCFA (tested as crude phage supernatant) [Phage-289] | – | – | CD28 scFv signal in presence of CD28 [8]: 0.28
MDWCPRYLWHVCFN [Phage-239] | 2.6 | 0.409 | –
MDWCPRTLWHVCFN [Phage-240] | 2.6 | 0.551 | –
MDWCPPHLWHECFF [Phage-358 clonal phage peptide MDWCPPHLWHECFF] | – | – | CD28 scFv signal [10]: 1.45
MDWCPKFLWDLCFA (peptide, not shown: large carriers, Clonal phage of the Peptide-9 library) [Phage-164] | – | – | CD28 scFv signal in presence of CD28 [1]: 0.139; CD28 scFv signal [2]: 1.07
VPWCQIISGLECLT [Phage-229] | 0.174 | 0.077 | –
APWCQIISGLECLT [Phage-230] | 0.169 | 0.078 | –
MDWCPRYLWNECFY (tested as crude clonal phage supernatant; not shown: pIII of the bacteriophage to which the peptide is fused) [Phage-66, clonal phage peptide MDWCPRYLWNECFY] | – | – | CD28 scFv signal in presence of CD28 [6]: 0.358; CD28 scFv signal [7]: 2.54
LHWCPTSMWTYCYY [Phage-392] | – | – | CD28 scFv signal in presence of CD28 [5]: 2.46
MDWCPKDRWNDCYF [Phage-224] | 1.09 | – | –
ITWCHVISGLECWN [Phage-228] | 0.193 | 0.1 | –
MDWCPRDRWVDCFF [Phage-223] | 1.58 | 0.14 | –
MDWCPRDRWADCFF [Phage-225] | 0.392 | 0.089 | –
MDWCPRDLWNLCFF [Phage-236] | – | 0.436 | –
MDWCPRYLWHECFS [Phage-235] | 2.65 | 0.303 | –
MDWCPRYLWHECFD [Phage-244] | 2.07 | 0.177 | –
MDWCPKVMWHYCFA [Phage-250] | 1.14 | 0.252 | –
MDWCPRNLWHLCFA [Phage-245] | 1.4 | 0.164 | –

— patent US20260242478A1 (published 2026)
